# Data from patent publication US7919104B2, “Functional epitopes of Streptococcus pneumoniae PsaA antigen and uses thereof” (priority 2005, dated 2011).
# Several values for one entry are separate records, joined by “and”; a condition that tells them apart may be missing. Equal values may be shown once.
# Experiments:
# Format in all cases: cell-based, human
# Detroit 562 cells [1] = assay: Competitive inhibition of adherence of rPsaA-coated fluospheres to Detroit 562 cells; conditions: for percent reduction in adherence of rPsaA-coated beads: rPsaA-coated beads 0.9 mg/ml batch, ~1,640 beads per well
# Protocol: (§1) Carboxylate-modified fluorospheres (Molecular Probes™, […]) coated with either recombinant PsaA (rPsaA) or PsaA synthetic peptide (P4) were evaluated for their adherence to Detroit 562 NP cells. Four different batches of PsaA beads were generated by varying the concentration of the protein solution used to coat the beads (0.9 mg/ml, 0.53 mg/ml, 5.3 μg/ml and 0.53 μg/ml). P4 and Glycine control beads were generated by using a peptide solution (0.9 mg/ml). Protein concentrations were confirmed by the Bradford test (Sigma). PsaA and peptide beads were compared at similar inocula (1640±210 beads per well) in adherence and adherence competition assays (measured as mean fluorescent units (FU±SE)).
# (§2) Homologous competitive inhibitions with 0.5 to 10 μg per well of rPsaA protein or 5 to 20 μg per well of each peptide were performed to determine the specificity of the adherence for rPsaA-coated fluospheres or for each of the three peptide-coated fluospheres. Heterologous competitive inhibitions with each peptide (10 μg per well) were performed to determine which peptide blocked the adherence of whole PsaA-coated fluospheres to the Detroit 562 cells. Absorption of PsaA-specific antibodies was performed by incubation (2 hours at ambient room temperature with rotation, 100 rpm) of 500 μl (1:8 dilution) of the serum 7051 with nitrocellulose strips (2.5×0.5 cm), previously impregnated with rPsaA protein (1.8 mg/ml) and allowed to dry at 37° C. for 1 hour. Strips were replaced every 2 hours for a total of 3 changes. All antibody absorptions were performed in PBS (10 mM, pH 7.2) supplemented with 1% (weight/volume) BSA as a non-specific blocker. Immunoglobulin G (IgG) concentrations (μg/ml) were measured as previously described (Tharpe, Romero-Steiner) after each absorption step to monitor the decline of anti-PsaA antibodies.
# Detroit 562 cells [2] = assay: Adherence of rPsaA- or peptide-coated fluospheres (beads) to Detroit 562 cells; conditions: for mean adherence of coated fluospheres (mean FU±SE): 3,100±500 fluospheres per well, 2 hour incubation; for mean adherence signal (n=6): 2600 fluospheres/well; for mean adherence (% CV): batch 6, dilution 1:100, 2,600 fluospheres
# Protocol: as §1
# Recombinant PsaA protein or synthetic peptides were covalently bound to carboxylate-modified FluoSpheres (Molecular Probes, Eugene, Oreg.) (505/515 nm range, yellow, 1 μm in diameter). […] The 2% fluosphere stock was vortexed for 2 minutes at full speed. A 250-μl aliquot was sonicated for 5 minutes to break clumps. The sonicated fluospheres were washed 3 times by centrifugation at 10,000 rpm for 10 minutes in 250 μl MES buffer, pH 6.0 (Molecular Probes). The negative charge in the carboxylate-modified fluospheres was activated by adding 50 μl of EDAC solution (100 mg/ml, Molecular Probes) to the washed fluospheres resuspended in 200 μl MES. The fluospheres were incubated for 30 minutes RT with gentle rotation. A 250-μl volume of rPsaA (1 mg/ml) or peptide (2 mg/ml) resuspended in MES buffer was added to each fluosphere pellet. Suboptimal concentrations of rPsaA (900, 530, 5.3 and 0.53 μg/ml) were also used to generate partially coated fluospheres. Peptides were dissolved as 1 mg in 50 μl of 10% acetic acid followed by addition of 450 μl of MES buffer, pH 6.0. The 500-μl fluosphere suspension was incubated in the dark over night at room temperature with horizontal rotation (150 rpm). The remaining reactive sites were blocked by addition of a 50-μl volume of 1 M solution of glycine, followed by a-30-minute incubation at room temperature with horizontal rotation. The fluosphere suspension was then washed with 500 μl PBS, 50 mM, pH 7.2-7.4 three times by centrifugation at 10,000 rpm for 10 minutes. The first supernatant of the first wash was saved for protein determinations using the microtiter microdilution method of Bradford (Bio-Rad Laboratories, Calif.). The labeled fluosphere pellet was resuspended in 500 μl of PBS, 50 mM, pH 7.2-7.4. Labeled fluospheres were stored in the dark in 100-μl aliquots at 4° C. for up to 4 months. The peptides were stored in powder form at 4° C. under Dryerite desiccant. The resuspended peptides were stored at 4° C. for 6 weeks and for long term storage at −70° C. Fluospheres were counted by limiting dilution using a fluorometer (FLX-600, BioTek) with 485/520 nm excitation/emission wavelength and comparison to a calibration curve previously generated against hemacytometer counts.
# Confluent monolayers of Detroit 562 cells grown in 96-well tissue culture plates for 6 days were washed once with 130 μl/well of PBS buffer+0.5% BSA (Sigma cat #A2153, Fraction V purified by alcohol precipitation). The entire outer perimeter of the microtiter plate was not used for adherence assays due to edge effect and lack of confluent growth in these wells. An 80-μl volume per well of PBS buffer+1% BSA and 20 μl per well of diluted fluosphere suspension (to yield ˜3100±500 fluospheres in a 20-μl volume) were added to the washed monolayers. The diluted fluosphere suspension was sonicated for 3 minutes prior to addition to the center of the wells. […] The sides of the plates were then tapped gently to mix. […] Following incubation, plates were washed 5 times with 130 μL/well of PBS+0.5% BSA. The liquid was removed after each wash with a multi-channel aspirator (Costar) and moderate vacuum. The plate was allowed to dry before reading in the fluorometer (485/520 nm). […]
# Detroit 562 cells [3] = assay: Homologous competitive inhibition of adherence of rPsaA- or peptide-coated fluospheres to Detroit 562 cells; conditions: for percent reduction in adherence of P4-coated beads: ~1,640 beads per well
# Protocol: as §1, §2
# [4] = homologous competitor 5.0 μg/well
# [5] = homologous competitor 10 μg/well
molecule,measurement,setting,value
"LFVESSVKRRPMKTVSQDTNIPIYAQIF [P4, non-branched synthetic peptide, PsaA amino acid residues 251 to 278 with DD changed to KR]",inhibition of the binding of PsaA protein to Detroit 562 cells,Detroit 562 cells [1],≥ 95%
same,percent reduction in adherence of rPsaA-coated beads,Detroit 562 cells [1]; competitor 5.0 μg/well,23% and 18.5%
same,percent reduction in adherence of rPsaA-coated beads,Detroit 562 cells [1]; competitor 10 μg/well,57.6%
same,percent reduction in adherence of rPsaA-coated beads,Detroit 562 cells [1]; competitor 20 μg/well,95% and 95.9%
same,"inhibition of rPsaA-fluosphere adherence, heterologous competition",Detroit 562 cells [1]; peptide 10 μg/well,57.6%
same,"inhibition of rPsaA-fluosphere adherence, heterologous competition",Detroit 562 cells [1]; peptide 20 μg/well (6.2×10^−2 mM),95.9%
same,mean adherence of coated fluospheres (mean FU±SE),Detroit 562 cells [2],"20,317±448 FU"
same,adherence of P4-coated beads (FU±SE),"Detroit 562 cells [2]; beads coated with 0.9 mg/ml peptide solution, 1640±210 beads per well","19,340 FU"
same,percent reduction in adherence of P4-coated beads,Detroit 562 cells [3]; competitor 5.0 μg/well,89% and 89.4%
same,percent reduction in adherence of P4-coated beads,Detroit 562 cells [3]; competitor 10 μg/well,88% and 87.6%
same,percent reduction in adherence of P4-coated beads,Detroit 562 cells [3]; competitor 20 μg/well,89% and 88.9%
same,percent reduction in adherence of homologous coated fluospheres,Detroit 562 cells [3]; [4],89.4%
same,percent reduction in adherence of homologous coated fluospheres,Detroit 562 cells [3]; [5],87.6%
same,percent reduction in adherence of homologous coated fluospheres,Detroit 562 cells [3]; homologous competitor 20 μg/well,88.9%
"rPsaA: purified recombinant pneumococcal surface adhesin A, non-lipidated, donated by Aventis-Pasteur (protein) CASGKKDTTSGQKLKVVATNSIIADITKNIAGDKIDLHSIVPIGQDPHEYEPLPEDVKKTSEADLIFYNGINLETGGNAWFTKLVENAKKTENKDYFAVSDGVDVIYLEGQNEKGKEDPHAWLNLENGIIFAKNIAKQLSAKDPNNKEFYEKNLKEYTDKLDKLDKESKDKFNKIPAEKKLIVTSEGAFKYFSKAYGVPSAYIWEINTEEEGTPEQIKTLVEKLRQTKVPSLFVESSVDDRPMKTVSQDTNIPIYAQIFTDSIAEQGKEGDSYYSMMKYNLDKIAEGLAK","inhibition of the adherence of PsaA-coated fluospheres, cold chase",Detroit 562 cells [1]; non-fluorescent spheres coated with PsaA protein,up to 31%
same,mean adherence signal (n=6),Detroit 562 cells [2]; 20 min incubation,"2,315 FU"
same,mean adherence signal (n=6),Detroit 562 cells [2]; 140 min incubation (plateau starts),"16,597 FU"
same,mean adherence signal (n=6),Detroit 562 cells [2]; 180 min incubation,"17,498 FU"
same,mean adherence of coated fluospheres (mean FU±SE),Detroit 562 cells [2],"44,195±2,648 FU"
same,mean adherence (% CV),Detroit 562 cells [2]; day 1 after labeling,"30,105 FU"
same,mean adherence (% CV),Detroit 562 cells [2]; day 60 after labeling,"30,595 FU"
same,adherence of PsaA beads (FU±SE),"Detroit 562 cells [2]; beads coated with 0.53 μg/ml rPsaA, 1640±210 beads per well","5,892 FU"
same,adherence of PsaA beads (FU±SE),"Detroit 562 cells [2]; beads coated with 5.3 μg/ml rPsaA, 1640±210 beads per well","12,788 FU"
same,adherence of PsaA beads (FU±SE),"Detroit 562 cells [2]; beads coated with 0.53 mg/ml rPsaA, 1640±210 beads per well","16,748 FU"
same,adherence of PsaA beads (FU±SE),"Detroit 562 cells [2]; beads coated with 0.9 mg/ml rPsaA, 1640±210 beads per well","47,875 FU"
same,reduction of adherence of rPsaA fluospheres by whole recombinant protein,Detroit 562 cells [3]; 0.5 to 10 μg/well,unable to significantly reduce
same,reduction of adherence of rPsaA-coated fluospheres,Detroit 562 cells [3]; additional concentrations 0.125 to 10.0 μg/well vs 3 μg/well,did not result in any further reduction
same,percent reduction in adherence of homologous coated fluospheres,Detroit 562 cells [3]; homologous competitor 0.5 μg/well,−5.2%
same,percent reduction in adherence of homologous coated fluospheres,Detroit 562 cells [3]; homologous competitor 1.0 μg/well,9.8%
same,percent reduction in adherence of homologous coated fluospheres,Detroit 562 cells [3]; homologous competitor 2.0 μg/well,17.0%
same,percent reduction in adherence of homologous coated fluospheres,Detroit 562 cells [3]; [4],13.7%
same,percent reduction in adherence of homologous coated fluospheres,Detroit 562 cells [3]; [5],11.4%
